US20180273626A1

Legend:
[1] = biological target: FcεRIα (human) (UniProt P12319); experiment: SPR; insect derived
[2] = biological target: FcεRIα (human) (UniProt P12319); experiment: SPR; mammalian derived

Sequence of IgE-Fc3-4 (P01854 209-426): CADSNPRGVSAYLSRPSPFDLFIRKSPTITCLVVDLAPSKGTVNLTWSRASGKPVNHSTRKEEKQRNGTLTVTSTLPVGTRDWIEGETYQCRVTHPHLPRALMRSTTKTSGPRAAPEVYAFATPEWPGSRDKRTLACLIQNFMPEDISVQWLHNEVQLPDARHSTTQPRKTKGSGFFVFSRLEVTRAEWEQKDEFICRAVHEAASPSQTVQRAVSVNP
Sequence of FcεRIα (human) (P12319 26-201): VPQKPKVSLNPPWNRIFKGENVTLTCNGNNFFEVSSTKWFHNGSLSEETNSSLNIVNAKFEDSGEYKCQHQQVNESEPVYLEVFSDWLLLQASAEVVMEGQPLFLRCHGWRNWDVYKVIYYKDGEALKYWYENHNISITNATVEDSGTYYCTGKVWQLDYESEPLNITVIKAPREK

A Kd [1] of 0.66 nM and a Kd [2] of 0.933 nM were found for IgE-Fc3-4 (from UniProt P01854 209-426) in this work.
